{"source": "patent US20140212406", "proteins": {"B1": {"name": "rat single-chain tPA with arginine to serine point mutation at position 276 (R276S), 6xHis-tagged (protein)", "chain": "HHHHHHSYRATCRDEQTQTTYQQHQSWLRPMLRGNRVEYCRCNSGLAQCHSVPVRSCSEPRCFNGGTCQQALYFSDFVCQCPDGFVGKRCDIDTRATCFEGQGITYRGTWSTAENGAECINWNSSALSQKPYSARRPNAIKLGLGNHNYCRNPDRDVRPWCYVFKAGKYTTEFCSTPACPKGPTEDCYVGKGVTYRGTHSFTTSKASCLPWNSMILIGKTYTAWRANSQALGLGRHNYCRNPDGDAKPWCHVMKDRKLTWEYCDMSPCSTCGLRQYKQPLFSIKGGLFTDITSHPWQAAIFVKNKRSPGERFLCGGVLISSCWVLSAAHCFVERFPPHHLKVVLGRTYRVVPGEEEQTFEIEKYIVHKEFDDDTYDNDIALLQLRSDSSQCAQESSSVGTACLPDPDVQLPDWTECELSGYGKHEASSPFFSDRLKEAHVRLYPSSRCTSQHLFNKTITSNMLCAGDTRTGGNQDVHDACQGDSGGPLVCMIDKRMTLLGIISWGLGCGQKDVPGIYTKVTNYLNWIQDNMKQ"}}, "target": "plasminogen", "data": [{"protein": "B1", "values": [{"measurement": "conversion of plasminogen into plasmin (fibrin agarose zymography; PPP-clot lysis)", "result": "Whereas sc*-tPA is not able to promote alone the conversion of plasminogen into plasmin, its fibrin cofactor partially brings back its plasminogen activation function"}]}]}
